Experimental findings from patent publication US20220356235A1 (STICHTING SANQUIN BLOEDVOORZIENING, published 2022) are described below.

Where only a bound is given, the exact number is not on record here.

For assay [1], the target named is T1, human factor H, full length (human, UniProt P08603 19-1231). The assay can be described thus: cell-based or functional assay.
Assay [2] has as its target T2, recombinant human FH fragment CCP 18-20 (human, UniProt P08603 1046-1231).
T2 construct: domain: CCP 18-20; also called fragment of FH comprised of domain 18-20
T2 sequence (looked up): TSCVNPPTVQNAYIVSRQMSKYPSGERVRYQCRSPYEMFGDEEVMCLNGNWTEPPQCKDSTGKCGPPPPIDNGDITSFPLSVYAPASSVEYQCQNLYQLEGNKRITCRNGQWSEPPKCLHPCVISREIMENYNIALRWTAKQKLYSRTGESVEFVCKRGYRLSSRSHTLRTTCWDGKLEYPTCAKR
The assay can be described thus: SPR (Biacore T200), mAb captured on ProtA or ProtG chip, FH CCP18-20 flowed over, 1:1 model. The protocol:
(§1) Surface plasmon resonance (SPR) experiments were performed using a BiaCore T200 (GE Healthcare) and CM5 sensor chips (GE Healthcare) in accordance with the manufacturer's instructions. In short, to determine its affinity, anti-FH.07, anti-FHR-1 3B4 or anti-FHR-1 8E4 were captured onto a ProtA or ProtG coupled chip and either full length FH or a fragment of FH comprising domain 18-20 was flown over the captured moAB at decreasing concentrations.

For assay [3], the target named is T1, human factor H, full length. In words: SPR (Biacore T200), mAb captured on ProtA or ProtG chip, full length FH flowed over, 1:1 model. The protocol:
as §1

The target in assay [4] is T2, recombinant human FH fragment CCP 18-20. The assay can be described thus: SPR, mAb captured, FH CCP18-20 flowed over (fuller figure of the value rounded to 0.03 × 10^-9 in Table 2). The protocol: as §1
The target of assay [5] is T3, recombinant human FH fragment CCP 19-20 (human, UniProt P08603 1107-1231).
T3 construct: domain: CCP 19-20
T3 sequence (looked up): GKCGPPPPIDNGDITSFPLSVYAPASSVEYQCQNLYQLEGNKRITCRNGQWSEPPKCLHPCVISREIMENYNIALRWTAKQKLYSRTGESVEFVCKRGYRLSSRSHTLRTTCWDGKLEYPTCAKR
The assay can be described thus: competition ELISA: mAb captured on RM-19 coated plate, FH-bt mixed with unlabelled CCP 19-20. How it is done:
The location of the epitope of anti-FHR-1 mAbs was determined using recombinant human FH fragments composed of multiple CCP domains (15-18, 15-19, 18-20 or 19-20). In short, anti-FHR-1 mAbs were captured on a RM-19 coated microtiterplate to assure optimal binding conformation. Next, biotinylated FH, mixed with a 100-fold higher concentration of the indicated unlabeled recombinant FH-fragments, was incubated on the plate for 1 hour. Binding of biotinylated FH was determined by incubation with 0.01% (v/v) streptavidin conjugated with poly-HRP, in HPE for 30 min. The ELISA was further developed as described above. To determine whether the anti-FHR-1 mAbs competed with anti-FH.07 for the binding of FH, a similar set-up was used. In short, mAbs were directly coated to the plate and binding of biotinylated FH (FH-bt) in the absence or presence of a 10-fold higher concentration of indicated mAbs was assessed by ELISA as described above.

Assay [6] concerns the target T4, C3b (UniProt P01024 23-667; P01024 749-1663, limits assumed).
T4 construct: C3b has two chains (beta and alpha') derived from C3; also called purified C3b (Complement Technologies)
In words: SPR on immobilised C3b, FH with Fab′ against FH alone. How it is done: (§2) Binding of FH to C3b in the presence of the anti-FH moAbs was determined by surface plasmon resonance using a Biacore T200 instrument (GE Healthcare, Little Chalfont, UK). Purified C3b (Complement Technologies) was immobilized onto a flow cell of a CM5 Biacore Sensor Chip (GE Healthcare) using standard amine coupling. The remaining flow cell was used as reference surface and prepared by performing a coupling reaction without the addition of any protein. A response of 2000 response units (RUs) was obtained after coupling with C3b. SPR experiments were performed at 37° C. using a flow rate of 10 μl/min and in phosphate buffered saline pH 7.4 (PBS, Orphi Farma) supplemented with 0.01% (w/v) Tween-20 (Merck) (PBS-T).
(§3) To determine the effect of the antibodies without interference of possible cross-linking via the moAb, recombinantly produced Fab′ fragments of the moAbs were used. Fab′ fragments were mixed with plasma purified FH (pdFH). […] Each Fab′ fragment was also injected without addition of FH to determine any interactions of the Fab′ fragments with the surfaces. The pdFH injection was followed by a dissociation of 60 seconds and surface was regenerated between each cycle by a single injection of 1 M NaCl (Merck).

Assay [7] addresses T4, C3b. The assay can be described thus: SPR on immobilised C3b, equilibrium analysis, FH with Fab′ against FH alone. The protocol:
as §2, §3

Assay [8] addresses T4, C3b. In words: SPR, C3b amine-coupled to CM5 chip, FH (5-0.01953 µM) injected with 10 µM anti-FHR-1 8E4 Fab′, equilibrium analysis; FH with anti-FHR-1 8E4 Fab′. The protocol: as §2, §3
Assay [9] has as its target T4, C3b. In words: SPR, C3b amine-coupled to CM5 chip, FH (5-0.01953 µM) injected with 10 µM anti-FH.07 Fab′, equilibrium analysis; FH with anti-FH.07 Fab′. How it is done: as §2, §3
(§4) Data was analyzed using Scrubber 2 (Biologic Software) affinities were determined by equilibrium analysis.

For assay [10], the target named is T4, C3b. The assay can be described thus: SPR, C3b amine-coupled to CM5 chip, FH (5-0.01953 µM) injected with 10 µM anti-FHR-1 3B4 Fab′, equilibrium analysis; FH with anti-FHR-1 3B4 Fab′. How it is done: as §2, §3, §4

T4 sequence (P01024 23-667 limits assumed, chain 1 of 2): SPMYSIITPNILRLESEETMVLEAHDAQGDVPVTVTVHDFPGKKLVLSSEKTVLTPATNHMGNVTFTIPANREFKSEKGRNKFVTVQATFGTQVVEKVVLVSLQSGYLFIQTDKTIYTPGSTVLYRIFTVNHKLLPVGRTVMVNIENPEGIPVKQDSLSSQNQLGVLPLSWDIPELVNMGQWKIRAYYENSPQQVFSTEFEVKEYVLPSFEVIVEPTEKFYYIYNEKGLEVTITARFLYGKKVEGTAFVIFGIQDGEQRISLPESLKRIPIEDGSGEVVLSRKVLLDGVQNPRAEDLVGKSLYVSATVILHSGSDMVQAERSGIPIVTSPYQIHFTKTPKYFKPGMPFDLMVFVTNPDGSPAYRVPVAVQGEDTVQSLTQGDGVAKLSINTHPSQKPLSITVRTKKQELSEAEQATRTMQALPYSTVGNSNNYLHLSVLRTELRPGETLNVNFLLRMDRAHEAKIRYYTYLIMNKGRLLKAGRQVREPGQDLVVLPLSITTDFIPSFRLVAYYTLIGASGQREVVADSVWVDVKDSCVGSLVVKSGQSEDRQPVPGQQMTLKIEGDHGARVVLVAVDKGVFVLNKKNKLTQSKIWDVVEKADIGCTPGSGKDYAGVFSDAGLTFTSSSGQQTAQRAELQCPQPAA
T4 sequence (P01024 749-1663 limits assumed, chain 2 of 2): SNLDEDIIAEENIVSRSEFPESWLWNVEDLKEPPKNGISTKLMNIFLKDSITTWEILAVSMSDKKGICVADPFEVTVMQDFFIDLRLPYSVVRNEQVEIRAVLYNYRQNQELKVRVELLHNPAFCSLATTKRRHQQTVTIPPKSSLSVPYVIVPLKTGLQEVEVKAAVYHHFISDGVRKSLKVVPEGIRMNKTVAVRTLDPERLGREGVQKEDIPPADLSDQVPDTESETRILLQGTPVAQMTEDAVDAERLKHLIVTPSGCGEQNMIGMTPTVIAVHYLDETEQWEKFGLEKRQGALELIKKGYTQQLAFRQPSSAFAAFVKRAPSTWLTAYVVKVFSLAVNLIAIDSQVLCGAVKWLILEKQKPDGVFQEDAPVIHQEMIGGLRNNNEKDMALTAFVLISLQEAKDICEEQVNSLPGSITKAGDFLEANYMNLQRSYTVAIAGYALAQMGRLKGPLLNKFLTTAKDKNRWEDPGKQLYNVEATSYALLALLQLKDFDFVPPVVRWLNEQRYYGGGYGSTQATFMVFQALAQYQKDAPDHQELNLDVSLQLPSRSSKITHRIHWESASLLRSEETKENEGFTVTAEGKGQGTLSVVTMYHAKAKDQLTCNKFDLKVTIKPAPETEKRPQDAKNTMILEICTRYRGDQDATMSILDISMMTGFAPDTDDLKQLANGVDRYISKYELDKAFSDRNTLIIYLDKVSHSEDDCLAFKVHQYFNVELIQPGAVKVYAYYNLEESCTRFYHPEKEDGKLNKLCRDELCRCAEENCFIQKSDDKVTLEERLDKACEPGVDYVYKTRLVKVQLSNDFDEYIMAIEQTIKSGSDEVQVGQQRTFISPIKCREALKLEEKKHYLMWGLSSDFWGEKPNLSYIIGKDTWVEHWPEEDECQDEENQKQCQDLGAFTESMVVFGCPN

B1: anti-FHR-1.8E4 (antibody, V domains shown)
VH: QVQLKQSGPGLVQPSQSLSITCTVSDFSLTNSGVHWVRQSPGKGLEWLGVIWSGGTTEYNAAFMSRLTITKDNSKSQVFFKMNSLLVDDTGIYYCARNFGNYAVDYWGQGTSVTVSS
VL: QIVLSQSPAILSASPGEKVTMTCRASSSVRYMHWYQQKAGSSPTAWIFATSNLASGVPPRFSGSGSGTSYSLTISRVEAEDAATYYCQQWGTKPPTFGAGTKLELK
notes: Mouse monoclonal from a hybridoma, raised against recombinant human FHR-1; also called aFHR-1 8E4
As for B1, in assay [1], the “IC50 (nM), Hemolytic assay” value was determined as 128 nM and the “IC50 (nM), LPS C3b dep. assay” value was 26.3 nM. Further, in assay [2], the Kd worked out at 0.03 nM, the koff worked out at 4.96e-05 s⁻¹ and the kon was found to be 1.58e+06 M⁻¹ s⁻¹. In [3], the Kd amounted to 10.4 nM, the koff was found to be 9.39e-05 s⁻¹ and the kon was determined as 9000 M⁻¹ s⁻¹. Moreover, the Kd in assay [4] was 0.0313 nM. The binding result in assay [5] is “no binding”.

B2: FH complexed with anti-FHR-1 8E4 Fab′ fragment (other, human)
chain: EDCNELPPRRNTEILTGSWSDQTYPEGTQAIYKCRPGYRSLGNVIMVCRKGEWVALNPLRKCQKRPCGHPGDTPFGTFTLTGGNVFEYGVKAVYTCNEGYQLLGEINYRECDTDGWTNDIPICEVVKCLPVTAPENGKIVSSAMEPDREYHFGQAVRFVCNSGYKIEGDEEMHCSDDGFWSKEKPKCVEISCKSPDVINGSPISQKIIYKENERFQYKCNMGYEYSERGDAVCTESGWRPLPSCEEKSCDNPYIPNGDYSPLRIKHRTGDEITYQCRNGFYPATRGNTAKCTSTGWIPAPRCTLKPCDYPDIKHGGLYHENMRRPYFPVAVGKYYSYYCDEHFETPSGSYWDHIHCTQDGWSPAVPCLRKCYFPYLENGYNQNYGRKFVQGKSIDVACHPGYALPKAQTTVTCMENGWSPTPRCIRVKTCSKSSIDIENGFISESQYTYALKEKAKYQCKLGYVTADGETSGSITCGKDGWSAQPTCIKSCDIPVFMNARTKNDFTWFKLNDTLDYECHDGYESNTGSTTGSIVCGYNGWSDLPICYERECELPKIDVHLVPDRKKDQYKVGEVLKFSCKPGFTIVGPNSVQCYHFGLSPDLPICKEQVQSCGPPPELLNGNVKEKTKEEYGHSEVVEYYCNPRFLMKGPNKIQCVDGEWTTLPVCIVEESTCGDIPELEHGWAQLSSPPYYYGDSVEFNCSESFTMIGHRSITCIHGVWTQLPQCVAIDKLKKCKSSNLIILEEHLKNKKEFDHNSNIRYRCRGKEGWIHTVCINGRWDPEVNCSMAQIQLCPPPPQIPNSHNMTTTLNYRDGEKVSVLCQENYLIQEGEEITCKDGRWQSIPLCVEKIPCSQPPQIEHGTINSSRSSQESYAHGTKLSYTCEGGFRISEENETTCYMGKWSSPPQCEGLPCKSPPEISHGVVAHMSDSYQYGEEVTYKCFEGFGIDGPAIAKCLGEKWSHPPSCIKTDCLSLPSFENAIPMGEKKDVYKAGEQVTYTCATYYKMDGASNVTCINSRWTGRPTCRDTSCVNPPTVQNAYIVSRQMSKYPSGERVRYQCRSPYEMFGDEEVMCLNGNWTEPPQCKDSTGKCGPPPPIDNGDITSFPLSVYAPASSVEYQCQNLYQLEGNKRITCRNGQWSEPPKCLHPCVISREIMENYNIALRWTAKQKLYSRTGESVEFVCKRGYRLSSRSHTLRTTCWDGKLEYPTCAKR
VH: B1 VH
VL: B1 VL
notes: mature; also called FH in presence of 10 µM anti-FHR-1 8E4 Fab′
On to B2, for which the “fold increase of measured RU against FH alone” value (shortened to “fold increase of measured RU”) in the assay with C3b [6] is not below 2 fold. The “increase in affinity of FH for C3b against FH alone (times)” value (“increase in affinity of FH for C3b” below) with C3b [7] was determined as 3.6 times. Binding with C3b [8] was characterised by a dissociation constant (Kd) of 1660 nM.

B3: FH complexed with anti-FH.07 Fab′ fragment (other, human)
chain: B2 chain
VH: QVQLQQSGPGLVQPSQSLSITCTVSDFSLARYGVHWIRQSPGKGLEWLGVIWSGGTADYNAAFISRLNINKDNSKSQVFFKMNSLQANDTAIYYCARNFGNYAVDYWGQGTS
VL: QIVLSQSPTFLSASPGEKVTVTCRASSSVKYMHWYQQKPGASPKPWIFATSNLASGVPARFSGSGSGTSYSLTISRVEAEDAATYYCQQWSIIPPTFGNGTKLELK
notes: mature; also called FH in presence of 10 µM anti-FH.07 Fab′
B3: in the assay with C3b [6], the “fold increase of measured RU” value is not below 2 fold. In addition, in the assay with C3b [7], the “increase in affinity of FH for C3b” value was determined as 2.7 times. For the same molecule, binding with C3b [9] was put at a Kd of 2200 nM.

B4: FH complexed with anti-FHR-1 3B4 Fab′ fragment (other, human)
chain: B2 chain
VH: QVQLRQSGPGLVQPSQSLSITCTVSGFSLTNYGVYWVRQSPGKGLEWLGVIWSGGTTDYSAAFISRLSISKDNSKSQVFFKMNSLQADDTAIYYCARNFGNYAMDYWGQGTSVTVSS
VL: QIVLSQSPTILSASPGEKVTMTCRASSSVTYMHWYQQKPGSSPKPWIYATSNLASGVPARFSGSGSGTSYSLTISRVEAEDAATYYCQQRSSSNPLTFGAGTKLELK
notes: mature; also called FH in presence of 10 µM anti-FHR-1 3B4 Fab′
As to B4, the “fold increase of measured RU” value with C3b [6] was not below 2 fold. In the assay with C3b [7], the “increase in affinity of FH for C3b” value was 3.2 times. The same molecule yielded a Kd with C3b [10] of 1900 nM.
